Article PMC9197560

Biological target: mature TGFβ1 produced in Nicotiana benthamiana (human)
Assay: non-reducing Tricine-PAGE with Western blot; mature TGFβ1 released by HCl, 10% Tricine-PAGE under reducing or non-reducing conditions, anti-TGFβ1 blot

- stoichiometry N: 2
Substance: mature TGFβ1 produced in Nicotiana benthamiana (ligand)
